# Assay results from IntAct's records for PubMed 26647308.
# B1: Forkhead box protein P1 (Homo sapiens), Q9H334 (parent)
# chain: MMQESGTETKSNGSAIQNGSGGSNHLLECGGLREGRSNGETPAVDIGAADLAHAQQQQQQALQVARQLLLQQQQQQQVSGLKSPKRNDKQPALQVPVSVAMMTPQVITPQQMQQILQQQVLSPQQLQVLLQQQQALMLQQQQLQEFYKKQQEQLQLQLLQQQHAGKQPKEQQQVATQQLAFQQQLLQMQQLQQQHLLSLQRQGLLTIQPGQPALPLQPLAQGMIPTELQQLWKEVTSAHTAEETTGNNHSSLDLTTTCVSSSAPSKTSLIMNPHASTNGQLSVHTPKRESLSHEEHPHSHPLYGHGVCKWPGCEAVCEDFQSFLKHLNSEHALDDRSTAQCRVQMQVVQQLELQLAKDKERLQAMMTHLHVKSTEPKAAPQPLNLVSSVTLSKSASEASPQSLPHTPTTPTAPLTPVTQGPSVITTTSMHTVGPIRRRYSDKYNVPISSADIAQNQEFYKNAEVRPPFTYASLIRQAILESPEKQLTLNEIYNWFTRMFAYFRRNAATWKNAVRHNLSLHKCFVRVENVKGAVWTVDEVEFQKRRPQKISGNPSLIKNMQSSHAYCTPLNAALQASMAENSIPLYTTASMGNPTLGNLASAIREELNGAMEHTNSNESDSSPGRSPMQAVHPVHVKEEPLDPEEAEGPLSLVTTANHSPDFDHDRDYEDEPVNEDME
# Variants of: B1
# Conditions: with foxp2_human FOXP2, O15409
# Chain of foxp2_human FOXP2, O15409 (O15409 whole entry): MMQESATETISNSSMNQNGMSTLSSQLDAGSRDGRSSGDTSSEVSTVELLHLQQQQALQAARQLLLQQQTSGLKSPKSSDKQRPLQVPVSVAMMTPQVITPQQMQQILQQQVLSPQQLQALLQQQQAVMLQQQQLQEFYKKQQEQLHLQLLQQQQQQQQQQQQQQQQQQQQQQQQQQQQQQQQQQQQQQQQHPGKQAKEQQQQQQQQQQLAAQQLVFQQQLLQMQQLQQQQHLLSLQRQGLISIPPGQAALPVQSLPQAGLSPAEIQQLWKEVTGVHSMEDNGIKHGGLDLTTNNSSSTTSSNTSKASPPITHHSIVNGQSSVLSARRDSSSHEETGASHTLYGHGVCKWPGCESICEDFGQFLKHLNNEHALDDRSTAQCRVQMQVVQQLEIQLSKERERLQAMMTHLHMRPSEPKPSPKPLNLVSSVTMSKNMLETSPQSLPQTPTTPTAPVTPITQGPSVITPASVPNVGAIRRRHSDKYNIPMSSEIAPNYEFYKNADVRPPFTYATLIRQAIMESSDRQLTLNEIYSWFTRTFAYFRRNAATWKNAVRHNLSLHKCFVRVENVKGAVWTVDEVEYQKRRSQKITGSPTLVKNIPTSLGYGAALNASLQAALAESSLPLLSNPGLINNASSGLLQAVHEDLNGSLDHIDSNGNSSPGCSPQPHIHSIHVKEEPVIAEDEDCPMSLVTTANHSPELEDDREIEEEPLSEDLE
row,Variant,effect of a mutation on the interaction
1,R514C,decreasing interaction strength
2,P215A,decreasing interaction strength
3,R465G,with no effect
4,I107T,disrupting interaction strength
5,N597T,with no effect
6,W534R,decreasing interaction strength
7,N570S,with no effect

# Variants of: B1
# Conditions: with foxp2_human FOXP2, O15409
# Remark: another data set of the same source
row,Variant,effect of a mutation on the interaction
1,R465G,decreasing interaction strength
2,W534R,disrupting interaction strength
